For one assay, the target named is FHM-14 (RSV strain A2) (UniProt P03420). In words: sandwich ELISA, AM14 coated, supernatant 1:10.
The target of the next assay is FHM-19 (RSV strain A2) (UniProt P03420). In words: sandwich ELISA, AM14 coated, supernatant 1:10.
For another assay, the target named is FHM-20 (RSV strain A2) (UniProt P03420). Nature of the assay: sandwich ELISA, AM14 coated, supernatant 1:10.
A further assay concerns the target FHM-22 (RSV strain A2) (UniProt P03420). In words: sandwich ELISA, AM14 coated, supernatant 1:10. In general terms: In an ELISA, binding on a coated surface is turned into a signal by an enzyme label.
The target in a further assay is FHM-9 (RSV strain A2) (UniProt P03420). Nature of the assay: sandwich ELISA, AM14 coated, supernatant 1:10.
The next assay addresses FHS-33 (RSV strain A2) (UniProt P03420). In words: sandwich ELISA, AM14 coated, supernatant 1:10.
In the next assay the target is FHS-41 (RSV strain A2) (UniProt P03420). In words: sandwich ELISA, AM14 coated, supernatant 1:10.
The next assay concerns the target FHS-55 (RSV strain A2) (UniProt P03420). In words: sandwich ELISA, AM14 coated, supernatant 1:10.
The next assay concerns the target FHS-60 (RSV strain A2) (UniProt P03420). Nature of the assay: sandwich ELISA, AM14 coated, supernatant 1:10.
The target in a further assay is FHS-61 (RSV strain A2) (UniProt P03420). Nature of the assay: sandwich ELISA, AM14 coated, supernatant 1:10.
A further assay addresses FHS-63 (RSV strain A2) (UniProt P03420). Nature of the assay: sandwich ELISA, AM14 coated, supernatant 1:10.
For the next assay, the target named is FHS-64 (RSV strain A2) (UniProt P03420). Nature of the assay: sandwich ELISA, AM14 coated, supernatant 1:10.
Another assay addresses FHS-81 (RSV strain A2) (UniProt P03420). In words: sandwich ELISA, AM14 coated, supernatant 1:10.
The next assay addresses FHS-96 (RSV strain A2) (UniProt P03420). In words: sandwich ELISA, AM14 coated, supernatant 1:10.
Assay [1] deals with FHCS-1 (RSV strain A2) (UniProt P03420). Nature of the assay: ELISA; F coated 5000 ng/ml; stored 37° C. 4 W.
The target of assay [2] is FHCS-2 (RSV strain A2) (UniProt P03420). In words: ELISA; F coated 5000 ng/ml; stored 37° C. 4 W.
Assay [3] concerns the target FHCS-4 (RSV strain A2) (UniProt P03420). Nature of the assay: ELISA; F coated 5000 ng/ml; stored 37° C. 4 W.
The target in assay [4] is FHCS-1 (RSV strain A2) (UniProt P03420). Nature of the assay: ELISA; F coated 10000 ng/ml; stored 37° C. 4 W.
For assay [5], the target named is FHCS-2 (RSV strain A2) (UniProt P03420). In words: ELISA; F coated 10000 ng/ml; stored 37° C. 4 W.
Assay [6] concerns the target FHCS-4 (RSV strain A2) (UniProt P03420). In words: ELISA; F coated 10000 ng/ml; stored 37° C. 4 W.
Assay [7] has as its target FHCS-1 (RSV strain A2) (UniProt P03420). Nature of the assay: ELISA; F coated 1250 ng/ml; stored 37° C. 2 W.
Assay [8] deals with FHCS-2 (RSV strain A2) (UniProt P03420). Nature of the assay: ELISA; F coated 1250 ng/ml; stored 37° C. 2 W.
The target of assay [9] is FHCS-4 (RSV strain A2) (UniProt P03420). Nature of the assay: ELISA; F coated 1250 ng/ml; stored 37° C. 2 W.
Assay [10] deals with FHCS-1 (RSV strain A2) (UniProt P03420). In words: ELISA; F coated 2500 ng/ml; stored 37° C. 2 W.
Assay [11] deals with FHCS-2 (RSV strain A2) (UniProt P03420). Nature of the assay: ELISA; F coated 2500 ng/ml; stored 37° C. 2 W.
For assay [12], the target named is FHCS-4 (RSV strain A2) (UniProt P03420). Nature of the assay: ELISA; F coated 2500 ng/ml; stored 37° C. 2 W.
For assay [13], the target named is FHCS-1 (RSV strain A2) (UniProt P03420). Nature of the assay: ELISA; F coated 156.3 ng/ml; stored 37° C. 4 W.
Assay [14] deals with FHCS-2 (RSV strain A2) (UniProt P03420). In words: ELISA; F coated 156.3 ng/ml; stored 37° C. 4 W.
In assay [15] the target is FHCS-4 (RSV strain A2) (UniProt P03420). In words: ELISA; F coated 156.3 ng/ml; stored 37° C. 4 W.

Several values for one entry are separate records, joined by “and”; a condition that tells them apart may be missing. Identical values can stand only once.

For the substance AM14 monoclonal antibody, the OD value came to 0.008 OD in the assay with FHM-14 (RSV strain A2); 0.367 OD with FHM-19 (RSV strain A2); 0.607 OD with FHM-20 (RSV strain A2); 1.98 OD with FHM-22 (RSV strain A2); 2.12 OD with FHM-9 (RSV strain A2); 0.005 OD with FHS-33 (RSV strain A2). The OD value came to 0.006 OD in the assay with FHS-41 (RSV strain A2); 0.009 OD with FHS-55 (RSV strain A2); 0.007 OD with FHS-60 (RSV strain A2); 0.008 OD in the assay with FHS-61 (RSV strain A2); 0.006 OD with FHS-63 (RSV strain A2); 0.008 OD with FHS-64 (RSV strain A2). Further, the OD value with FHS-81 (RSV strain A2) is 0.008 OD; in the assay with FHS-96 (RSV strain A2), 0.011 OD; with FHCS-1 (RSV strain A2) [1], 1.17 OD and 1.33 OD; in the assay with FHCS-2 (RSV strain A2) [2] it was 1.95 OD and 1.48 OD; with FHCS-4 (RSV strain A2) [3] it was 0.665 OD and 0.438 OD; with FHCS-1 (RSV strain A2) [4] it was 1.87 OD and 2.17 OD. Besides, the OD value with FHCS-2 (RSV strain A2) [5] is 2.11 OD and 2.23 OD; with FHCS-4 (RSV strain A2) [6], 1.76 OD and 2.01 OD.
Consider Synagis® (antibody), for which the OD value was 0.478 OD and 0.493 OD in the assay with FHCS-1 (RSV strain A2) [7]; 0.78 OD and 0.704 OD in the assay with FHCS-2 (RSV strain A2) [8]; 0.535 OD and 0.54 OD in the assay with FHCS-4 (RSV strain A2) [9]; 1.88 OD and 1.43 OD with FHCS-1 (RSV strain A2) [10]; 1.6 OD and 1.85 OD in the assay with FHCS-2 (RSV strain A2) [11]; 1.46 OD and 1.58 OD with FHCS-4 (RSV strain A2) [12]. The OD value with FHCS-1 (RSV strain A2) [13] was 0.055 OD and 0.062 OD; in the assay with FHCS-2 (RSV strain A2) [14] it was 0.069 OD and 0.058 OD; in the assay with FHCS-4 (RSV strain A2) [15], 0.05 OD and 0.048 OD.

The record behind these values is US20260117202A1.
